For one experiment, the target named is T1, GST-NUC-1 (C. elegans, UniProt Q17778 22-375).
T1 construct: also called NUC-1 GST-fusion protein; not shown: glutathione S-transferase tag encoded by vector pGEX4T-2
T1 sequence (looked up): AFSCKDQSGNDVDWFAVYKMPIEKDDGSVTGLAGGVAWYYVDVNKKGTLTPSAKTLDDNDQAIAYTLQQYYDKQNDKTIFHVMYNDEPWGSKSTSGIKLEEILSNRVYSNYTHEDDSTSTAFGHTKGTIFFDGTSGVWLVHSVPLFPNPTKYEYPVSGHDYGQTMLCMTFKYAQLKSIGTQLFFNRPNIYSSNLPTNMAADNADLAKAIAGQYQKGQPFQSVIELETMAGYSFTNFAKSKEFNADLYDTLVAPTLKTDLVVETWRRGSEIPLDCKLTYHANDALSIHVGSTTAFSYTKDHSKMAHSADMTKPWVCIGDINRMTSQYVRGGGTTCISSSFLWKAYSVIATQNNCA
The experiment is described as follows: GST pull-down, 35S-Met protein vs GST fusion; - means no detectable binding (footnote a). In outline: (§1)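 GST alone or GST fusions (5 μg) on glutathione beads incubated 2 hours at 4° C. with in vitro translated ³⁵S-Met-labeled proteins; bound protein by 12% SDS-PAGE and autoradiography. Scored against background binding of ³⁵S-luciferase to GST fusions and of labeled proteins to GST.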

A further experiment addresses T2, GST-CRN-1 (C. elegans, UniProt Q9N3T2 21-382).
T2 construct: also called CRN-1 GST-fusion protein; not shown: glutathione S-transferase tag encoded by vector pGEX4T-2
T2 sequence (looked up): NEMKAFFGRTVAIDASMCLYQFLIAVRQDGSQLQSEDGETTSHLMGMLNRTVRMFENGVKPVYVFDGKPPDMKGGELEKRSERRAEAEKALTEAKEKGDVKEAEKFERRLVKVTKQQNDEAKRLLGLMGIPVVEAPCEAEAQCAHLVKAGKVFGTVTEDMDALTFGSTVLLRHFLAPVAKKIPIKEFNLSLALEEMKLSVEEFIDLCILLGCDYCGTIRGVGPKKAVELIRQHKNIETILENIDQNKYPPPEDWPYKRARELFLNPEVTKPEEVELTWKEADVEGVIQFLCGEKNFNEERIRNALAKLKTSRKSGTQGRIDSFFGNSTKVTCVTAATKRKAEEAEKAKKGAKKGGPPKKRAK
The experiment is described as above. In outline: as §1

The values that follow come from patent US20050142568A1 (published 2005).

B1: ^35S-Methionine labeled CRN-2 (enzyme, C. elegans)
chain: MALYELVDIGANLGHPSYQKDLNDVLDRAKQAGLSKIMVTGTSEKISHECADLVEKYPGFLYFTAGVHPHDAKDWNDGTLEALKKLQENPSCVAVGECGLDFNRNFSPQDVQKEVFAKQVDMAVKLQKPLFIHEREAHEDMVKILTAAGPSLPPAVIHCFTGTVVEAKKYLEMGFYIGLTGFLWKDRSDNGVQAGLRSGEIPIEKLVLETDAPYMYPKINDKKIPKEIKSLITPETEALHNFSSFNRNEPCSLAAVCELVAAFAGRDPKEVAKITTENAKKVYKLE
For the molecule B1, the binding result with GST-NUC-1 and in the experiment with GST-CRN-1 was “no binding” throughout.
